Source: patent US20140023585A1, “177 LUTETIUM-LABELED BOMBESIN ANALOGS FOR RADIOTHERAPY” (UNIVERSITATSSPITAL BASEL, priority 2010, published 2014)

Assay: in vivo
Conditions: male, NMRI nu/nu, mouse, iv, total radioactivity; for tissue uptake at 1 h: 1.0 h p.a.; for tissue uptake at 4 h: 4.0 h p.a.; for tissue uptake at 24 h: 24.0 h p.a.; for tissue uptake at 48 h: 48.0 h p.a.; for tissue uptake at 72 h: 72.0 h p.a.
Method: Biodistribution was investigated in NMRI nude mice bearing subcutaneous PC-3 tumors in the right hind limb at different time-points. Body weight of the male mice was approx. 30 g, 3 animals were investigated per time-point. After injecting an intravenous dose into the tail vein, mice were sacrificed at indicated time points and dissected organs were analyzed by radioactive counting. An administration dose of 100 μL was applied per animal with a mean activity of 86 kBq.
At indicated time points urine and feces were quantitatively collected. At the same time points, animals were sacrificed and exsanguinations under isoflurane anesthesia and the following organs and tissues were removed for measurement of [^177Lu] using the gamma-counter: spleen, liver, gallbladder, kidneys, lung, femur, heart, brain, fat, thyroid, muscle, skin, blood, tail, stomach (without content), prostate, intestine (with content), pancreas, adrenals, and the remaining body (designated as carcass).
Whole organs and tissues or aliquots were weighted and measured in a gamma-counter for radioactivity. In order to get the amount of total radioactivity administered in each animal (=100%) 3 aliquots (100 μL each) of the injected solution were always measured in parallel. The results of the biodistribution and excretion are reported as percent of injected dose per gram of tissue (% ID/g) and percent of injected dose per organ (% ID), respectively. All data are given as mean value±standard deviation, which were calculated by using all animals per time and sample.

[1] = pancreas, 86 kBq per animal, % ID/g Pancreas
[2] = stomach (without content), 86 kBq per animal, % ID/g Stomach
[3] = stomach (without content), 86 kBq
[4] = tail, 86 kBq per animal, % ID/g Tail

Structure (SMILES): CC(C)C[C@H](NC(=O)C[C@H](O)[C@H](CC(C)C)NC(=O)[C@H](Cc1c[nH]cn1)NC(=O)CNC(=O)[C@@H](NC(=O)[C@H](C)NC(=O)[C@H](Cc1c[nH]c2ccccc12)NC(=O)[C@H](CCC(N)=O)NC(=O)[C@@H](Cc1ccccc1)NC(=O)CN1CCC(NC(=O)CN2CCN(CC(=O)O)CCN(CC(=O)O)CCN(CC(=O)O)CC2)CC1)C(C)C)C(N)=O [compound 2, [^177Lu]-DOTA-4-amino-1-carboxymethylpiperidine-D-Phe-Gln-Trp-Ala-Val-Gly-His-Sta-Leu-NH2, metal not drawn]
- tissue uptake dose at 24 h (lung, 86 kBq per animal): 0.005 %ID
- tissue uptake dose at 48 h (lung, 86 kBq per animal): 0.013 %ID
- tissue uptake at 1 h (lung, 86 kBq, % ID/g Lung): 0.364 %ID/g
- tissue uptake at 4 h (lung, 86 kBq, % ID/g Lung): 0.083 %ID/g
- tissue uptake at 24 h (lung, 86 kBq, % ID/g Lung): 0.019 %ID/g
- tissue uptake at 48 h (lung, 86 kBq, % ID/g Lung): 0.048 %ID/g
- tissue uptake dose at 1 h (muscle, 86 kBq per animal): 0.014 %ID
- tissue uptake dose at 4 h (muscle, 86 kBq per animal): 0.003 %ID
- tissue uptake at 1 h (muscle, 86 kBq, % ID/g Muscle): 0.072 %ID/g
- tissue uptake at 4 h (muscle, 86 kBq, % ID/g Muscle): 0.02 %ID/g
- tissue uptake dose at 1 h (organs (sum), 86 kBq): 20.1 %ID
- tissue uptake dose at 4 h (organs (sum), 86 kBq): 9.64 %ID
- tissue uptake dose at 24 h (organs (sum), 86 kBq): 3.64 %ID
- tissue uptake dose at 48 h (organs (sum), 86 kBq): 2.09 %ID
- tissue uptake dose at 72 h (organs (sum), 86 kBq): 1.37 %ID
- tissue uptake at 1 h [1]: 18.7 %ID/g
- tissue uptake at 4 h [1]: 5.17 %ID/g
- tissue uptake at 24 h [1]: 0.579 %ID/g
- tissue uptake at 48 h [1]: 0.288 %ID/g
- tissue uptake at 72 h [1]: 0.206 %ID/g
- tissue uptake dose at 1 h (pancreas, 86 kBq): 8.03 %ID
- tissue uptake dose at 4 h (pancreas, 86 kBq): 1.74 %ID
- tissue uptake dose at 24 h (pancreas, 86 kBq): 0.196 %ID
- tissue uptake dose at 48 h (pancreas, 86 kBq): 0.076 %ID
- tissue uptake dose at 72 h (pancreas, 86 kBq): 0.046 %ID
- tissue uptake at 1 h (prostate, 86 kBq per animal, % ID/g Prostate): 0.289 %ID/g
- tissue uptake dose at 1 h (prostate, 86 kBq): 0.003 %ID
- tissue uptake dose at 1 h (skin, 86 kBq per animal): 1.81 %ID
- tissue uptake dose at 4 h (skin, 86 kBq per animal): 0.515 %ID
- tissue uptake dose at 24 h (skin, 86 kBq per animal): 0.162 %ID
- tissue uptake dose at 48 h (skin, 86 kBq per animal): 0.246 %ID
- tissue uptake dose at 72 h (skin, 86 kBq per animal): 0.152 %ID
- tissue uptake at 72 h (skin, 86 kBq per animal, % ID/g Skin): 0.04 %ID/g
- tissue uptake at 1 h (skin, 86 kBq, % ID/g Skin): 0.409 %ID/g
- tissue uptake at 4 h (skin, 86 kBq, % ID/g Skin): 0.145 %ID/g
- tissue uptake at 24 h (skin, 86 kBq, % ID/g Skin): 0.055 %ID/g
- tissue uptake at 48 h (skin, 86 kBq, % ID/g Skin): 0.074 %ID/g
- tissue uptake dose at 1 h (spleen, 86 kBq per animal): 0.034 %ID
- tissue uptake dose at 4 h (spleen, 86 kBq per animal): 0.015 %ID
- tissue uptake dose at 24 h (spleen, 86 kBq per animal): 0.005 %ID
- tissue uptake dose at 48 h (spleen, 86 kBq per animal): 0.003 %ID
- tissue uptake at 1 h (spleen, 86 kBq, % ID/g Spleen): 0.284 %ID/g
- tissue uptake at 4 h (spleen, 86 kBq, % ID/g Spleen): 0.152 %ID/g
- tissue uptake at 24 h (spleen, 86 kBq, % ID/g Spleen): 0.06 %ID/g
- tissue uptake at 48 h (spleen, 86 kBq, % ID/g Spleen): 0.056 %ID/g
- tissue uptake at 1 h [2]: 2.56 %ID/g
- tissue uptake at 4 h [2]: 1.36 %ID/g
- tissue uptake at 24 h [2]: 0.081 %ID/g
- tissue uptake at 48 h [2]: 0.042 %ID/g
- tissue uptake at 72 h [2]: 0.02 %ID/g
- tissue uptake dose at 1 h [3]: 0.614 %ID
- tissue uptake dose at 4 h [3]: 0.321 %ID
- tissue uptake dose at 24 h [3]: 0.018 %ID
- tissue uptake dose at 48 h [3]: 0.01 %ID
- tissue uptake dose at 72 h [3]: 0.005 %ID
- tissue uptake dose at 1 h (tail, 86 kBq per animal): 1.84 %ID
- tissue uptake dose at 4 h (tail, 86 kBq per animal): 0.694 %ID
- tissue uptake dose at 24 h (tail, 86 kBq per animal): 0.337 %ID
- tissue uptake dose at 48 h (tail, 86 kBq per animal): 0.15 %ID
- tissue uptake at 1 h [4]: 2.23 %ID/g
- tissue uptake at 4 h [4]: 0.953 %ID/g
- tissue uptake at 24 h [4]: 0.436 %ID/g
- tissue uptake at 48 h [4]: 0.194 %ID/g
- tissue uptake at 72 h [4]: 0.313 %ID/g
- tissue uptake dose at 72 h (tail, 86 kBq): 0.263 %ID
- tissue uptake dose at 1 h (thyroid, 86 kBq per animal): 0.006 %ID
- tissue uptake at 1 h (thyroid, 86 kBq, % ID/g Thyroid): 0.185 %ID/g
- tissue uptake dose at 1 h (tumor, 86 kBq per animal): 1.12 %ID
- tissue uptake dose at 4 h (tumor, 86 kBq per animal): 3.07 %ID
- tissue uptake dose at 24 h (tumor, 86 kBq per animal): 2.19 %ID
- tissue uptake dose at 48 h (tumor, 86 kBq per animal): 1.05 %ID
- tissue uptake dose at 72 h (tumor, 86 kBq per animal): 0.55 %ID
- tissue uptake at 1 h (tumor, 86 kBq, % ID/g Tumor): 5.6 %ID/g
- tissue uptake at 4 h (tumor, 86 kBq, % ID/g Tumor): 8.1 %ID/g
- tissue uptake at 24 h (tumor, 86 kBq, % ID/g Tumor): 6.06 %ID/g
- tissue uptake at 48 h (tumor, 86 kBq, % ID/g Tumor): 3.58 %ID/g
- tissue uptake at 72 h (tumor, 86 kBq, % ID/g Tumor): 2.49 %ID/g
- dose excreted at 1 h (urine, 86 kBq): 71.8%
- dose excreted at 4 h (urine, 86 kBq): 63.1%
- dose excreted at 24 h (urine, 86 kBq): 76.3%
- dose excreted at 48 h (urine, 86 kBq): 74%
- dose excreted at 72 h (urine, 86 kBq): 63.7%
